Laboratory results taken from article PMC5703284 (Proceedings of the National Academy of Sciences of the …, 2017).

Key:
[1] = biological target: T1, human ActRIIB-Fc protein (human, UniProt Q13705)
T1 sequence: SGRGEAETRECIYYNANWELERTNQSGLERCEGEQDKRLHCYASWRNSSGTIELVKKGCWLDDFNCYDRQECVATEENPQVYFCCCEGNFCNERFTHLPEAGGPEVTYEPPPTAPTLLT

[2] = biological target: human ActRIIA-Fc protein (human, UniProt P27037)
Sequence of human ActRIIA-Fc protein (P27037 20-135): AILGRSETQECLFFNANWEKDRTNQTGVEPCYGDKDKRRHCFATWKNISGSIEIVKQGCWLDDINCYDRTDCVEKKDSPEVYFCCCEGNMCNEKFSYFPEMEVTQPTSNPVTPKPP

- Kd [1]: 6.5 pM
- Kd [2]: 5.3 pM
B1: activin A (ligand)
chain: GLECDGKVNICCKKQFFVSFKDIGWNDWIIAPSGYHANYCEGECPSHIAGTSGSSLSFHSTVINHYRMRGHSPFANLKSCCVPTKLRPMSMLYYDDGQNIIKKDIQNMIVEECGCS
